{"source": "patent US6660836", "key": {"[1]": {"molecular_target": "Gαq-glutathione S-transferase fusion protein", "test": "hydroxyl radical alkyl 1H/2H exchange footprinting, LC-MS of DNS-amino acids; 50 µM GST-Gaq/100 µM CTP, 400 µM OH radical"}, "[2]": {"molecular_target": "Gαq-glutathione S-transferase fusion protein", "test": "hydroxyl radical alkyl 1H/2H exchange footprinting normalised to internal reference 2,4-DNP-Leu; 50 µM GST-Gaq/100 µM CTP, 200 µM OH radical"}, "[3]": {"molecular_target": "Gαq-glutathione S-transferase fusion protein", "test": "hydroxyl radical alkyl 1H/2H exchange footprinting, LC-MS of DNS-amino acids; 50 µM GST-Gaq/100 µM CTP, 200 µM OH radical"}, "[4]": {"molecular_target": "Gαq-glutathione S-transferase fusion protein", "test": "hydroxyl radical alkyl 1H/2H exchange footprinting normalised to internal reference 2,4-DNP-Leu; 50 µM GST-Gaq/100 µM CTP, 400 µM OH radical"}, "[5]": {"molecular_target": "Gαq-glutathione S-transferase fusion protein", "test": "hydroxyl radical alkyl 1H/2H exchange footprinting normalised to internal reference 2,4-DNP-Leu; 30 µM GST-Gaq/15.6 µM CTP, 400 µM OH radical"}, "[6]": {"molecular_target": "Gαq-glutathione S-transferase fusion protein", "test": "hydroxyl radical alkyl 1H/2H exchange footprinting, LC-MS of DNS-amino acids; 30 µM GST-Gaq/15.6 µM CTP, 400 µM OH radical"}}, "data": [{"binder": "SNEQKACKVLGI", "note": "[C-terminal peptide (…) of the third intracellular loop of the 5-hydroxytryptamine2A receptor]", "values": [{"measurement": "Δ Isotope Ratio free/Δ Isotope Ratio bound (residue Ala)", "setting": "[1]", "value": 6.3}, {"measurement": "Δ Isotope Ratio free/Δ Isotope Ratio bound (residue Asp)", "setting": "[1]", "value": -2.5}, {"measurement": "Δ Isotope Ratio free/Δ Isotope Ratio bound (residue Glu)", "setting": "[1]", "value": 6.5}, {"measurement": "Δ Isotope Ratio free/Δ Isotope Ratio bound (residue Gly)", "setting": "[1]", "value": 0.5}, {"measurement": "Δ Isotope Ratio free/Δ Isotope Ratio bound (residue Ile)", "setting": "[1]", "value": 2.9}, {"measurement": "Δ Isotope Ratio free/Δ Isotope Ratio bound (residue Leu)", "setting": "[1]", "value": 3.1}, {"measurement": "Δ Isotope Ratio free/Δ Isotope Ratio bound (residue Lys, diDNS-Lys derivative)", "setting": "[1]", "value": 3.1}, {"measurement": "Δ Isotope Ratio free/Δ Isotope Ratio bound (residue Ser)", "setting": "[1]", "value": 0}, {"measurement": "Δ Isotope Ratio free/Δ Isotope Ratio bound (residue Val)", "setting": "[1]", "value": 2.7}, {"measurement": "Protection Factor (residue Ala)", "setting": "[2]", "value": 2}, {"measurement": "Protection Factor (residue Asp)", "setting": "[2]", "value": -0.77}, {"measurement": "Protection Factor (residue Glu)", "setting": "[2]", "value": 0.51}, {"measurement": "Protection Factor (residue Gly)", "setting": "[2]", "value": 0.32}, {"measurement": "Protection Factor (residue Ile)", "setting": "[2]", "value": 0.62}, {"measurement": "Protection Factor (residue Leu)", "setting": "[2]", "value": 0.59}, {"measurement": "Protection Factor (residue Lys)", "setting": "[2]", "value": 0.58}, {"measurement": "Protection Factor (residue Ser)", "setting": "[2]", "value": 0}, {"measurement": "Protection Factor (residue Val)", "setting": "[2]", "value": 0.61}, {"measurement": "Δ Isotope Ratio free/Δ Isotope Ratio bound (residue Ala)", "setting": "[3]", "value": 4.5}, {"measurement": "Δ Isotope Ratio free/Δ Isotope Ratio bound (residue Asp)", "setting": "[3]", "value": -2}, {"measurement": "Δ Isotope Ratio free/Δ Isotope Ratio bound (residue Glu)", "setting": "[3]", "value": 1.8}, {"measurement": "Δ Isotope Ratio free/Δ Isotope Ratio bound (residue Gly)", "setting": "[3]", "value": 1.2}, {"measurement": "Δ Isotope Ratio free/Δ Isotope Ratio bound (residue Ile)", "setting": "[3]", "value": 2.5}, {"measurement": "Δ Isotope Ratio free/Δ Isotope Ratio bound (residue Leu)", "setting": "[3]", "value": 2.3}, {"measurement": "Δ Isotope Ratio free/Δ Isotope Ratio bound (residue Lys, diDNS-Lys derivative)", "setting": "[3]", "value": 2.4}, {"measurement": "Δ Isotope Ratio free/Δ Isotope Ratio bound (residue Ser)", "setting": "[3]", "value": 0}, {"measurement": "Δ Isotope Ratio free/Δ Isotope Ratio bound (residue Val)", "setting": "[3]", "value": 2.4}, {"measurement": "Protection Factor (residue Ala)", "setting": "[4]", "value": 7.2}, {"measurement": "Protection Factor (residue Asp)", "setting": "[4]", "value": -1.5}, {"measurement": "Protection Factor (residue Glu)", "setting": "[4]", "value": 6.3}, {"measurement": "Protection Factor (residue Gly)", "setting": "[4]", "value": 0}, {"measurement": "Protection Factor (residue Ile)", "setting": "[4]", "value": 2.2}, {"measurement": "Protection Factor (residue Leu)", "setting": "[4]", "value": 2.4}, {"measurement": "Protection Factor (residue Lys)", "setting": "[4]", "value": 2.3}, {"measurement": "Protection Factor (residue Ser)", "setting": "[4]", "value": 0}, {"measurement": "Protection Factor (residue Val)", "setting": "[4]", "value": 2}, {"measurement": "Protection Factor (residue Ala)", "setting": "[5]", "value": 0.24}, {"measurement": "Protection Factor (residue Asp)", "setting": "[5]", "value": 0.16}, {"measurement": "Protection Factor (residue Glu)", "setting": "[5]", "value": 0.37}, {"measurement": "Protection Factor (residue Gly)", "setting": "[5]", "value": 0.3}, {"measurement": "Protection Factor (residue Ile)", "setting": "[5]", "value": 0.41}, {"measurement": "Protection Factor (residue Leu)", "setting": "[5]", "value": 0.39}, {"measurement": "Protection Factor (residue Lys)", "setting": "[5]", "value": 0.39}, {"measurement": "Protection Factor (residue Ser)", "setting": "[5]", "value": -0.35}, {"measurement": "Protection Factor (residue Val)", "setting": "[5]", "value": 0.38}, {"measurement": "Δ Isotope Ratio free/Δ Isotope Ratio bound (residue Ala)", "setting": "[6]", "value": 0.8}, {"measurement": "Δ Isotope Ratio free/Δ Isotope Ratio bound (residue Asp)", "setting": "[6]", "value": 0.53}, {"measurement": "Δ Isotope Ratio free/Δ Isotope Ratio bound (residue Glu)", "setting": "[6]", "value": 1.2}, {"measurement": "Δ Isotope Ratio free/Δ Isotope Ratio bound (residue Gly)", "setting": "[6]", "value": 0.99}, {"measurement": "Δ Isotope Ratio free/Δ Isotope Ratio bound (residue Ile)", "setting": "[6]", "value": 1.4}, {"measurement": "Δ Isotope Ratio free/Δ Isotope Ratio bound (residue Leu)", "setting": "[6]", "value": 1.3}, {"measurement": "Δ Isotope Ratio free/Δ Isotope Ratio bound (residue Lys, diDNS-Lys derivative)", "setting": "[6]", "value": 1.3}, {"measurement": "Δ Isotope Ratio free/Δ Isotope Ratio bound (residue Ser)", "setting": "[6]", "value": -1.2}, {"measurement": "Δ Isotope Ratio free/Δ Isotope Ratio bound (residue Val)", "setting": "[6]", "value": 1.3}]}]}
